One assay addresses T1, hPCSK9(D374Y)-mmh (human, UniProt Q8NBP7 31-692).
T1 construct: also called hPCSK(D374Y)-mmh
Kind of assay: SPR, mAb captured on anti-hFc, 37C. For orientation: Surface plasmon resonance follows binding to a sensor surface in real time, without labels.

The target of assay [1] is T2, cynomolgus monkey (Macaca fascicularis) PCSK9, myc-myc-his tagged (cynomolgus monkey (Macaca fascicularis), UniProt A8T662 31-692 (Macaca nemestrina entry), limits assumed).
T2 construct: also called mfPCSK9-mmh; mfPCSK9
Kind of assay: SPR, mAb captured on anti-hFc, 37C.

In assay [2] the target is T3, tagged rhesus monkey (Macaca mulata) PCSK9 (rhesus monkey (Macaca mulata), UniProt A8T666 31-692).
T3 construct: also called mmPCSK9-mmh; mmPCSK9
Kind of assay: SPR, mAb captured on anti-hFc, 37C.

Assay [3] has as its target T4, Human PCSK9-myc-myc-his (human, UniProt Q8NBP7 31-692).
T4 construct: also called hPCSK9-mmh; hPCSK9
The experiment in a line: SPR, mAb captured on anti-hFc, 37C.

Assay [4] has as its target T3, tagged rhesus monkey (Macaca mulata) …. Kind of assay: SPR, 25C.
Assay [5] has as its target T5, Chimeric protein #3 (mPro-mCat-hC-term-mmh) (mouse; human).
T5 chain: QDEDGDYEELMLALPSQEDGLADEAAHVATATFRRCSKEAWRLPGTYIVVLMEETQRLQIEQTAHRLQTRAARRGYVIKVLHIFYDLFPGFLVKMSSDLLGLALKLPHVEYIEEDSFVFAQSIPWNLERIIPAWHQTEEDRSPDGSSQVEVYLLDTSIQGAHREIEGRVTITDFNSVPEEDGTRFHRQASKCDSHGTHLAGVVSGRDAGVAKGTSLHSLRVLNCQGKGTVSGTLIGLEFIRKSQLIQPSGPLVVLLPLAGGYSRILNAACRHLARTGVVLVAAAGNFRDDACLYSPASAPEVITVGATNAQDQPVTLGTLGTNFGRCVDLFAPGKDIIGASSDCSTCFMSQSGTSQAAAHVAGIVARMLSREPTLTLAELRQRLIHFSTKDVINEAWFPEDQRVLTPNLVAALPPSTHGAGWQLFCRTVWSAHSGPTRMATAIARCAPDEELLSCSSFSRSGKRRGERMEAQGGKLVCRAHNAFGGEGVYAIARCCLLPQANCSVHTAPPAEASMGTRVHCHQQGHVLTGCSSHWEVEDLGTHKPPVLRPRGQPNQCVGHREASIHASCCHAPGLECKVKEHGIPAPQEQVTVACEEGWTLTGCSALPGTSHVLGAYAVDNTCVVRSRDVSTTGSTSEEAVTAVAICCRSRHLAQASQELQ
The experiment in a line: ELISA, mAb coated, 1.7 nM antigen. (In an ELISA, binding on a coated surface is turned into a signal by an enzyme label.)

The target of assay [6] is T6, mouse PCSK9, myc-myc-his tagged (mouse, UniProt Q80W65 35-694).
T6 construct: also called mPCSK9-mmh; mPCSK9
The experiment in a line: SPR, mAb amine-coupled, 25C, pH 7.4.
Source text: (§1) Briefly, mAbs were immobilized onto BIACORE™ CM5 sensor chips via amine coupling.

In assay [7] the target is T7, human PCSK7, myc-myc-his tagged (human, UniProt Q16549 142-667, limits assumed).
T7 construct: also called hPCSK7-mmh; hPCSK7
T7 sequence: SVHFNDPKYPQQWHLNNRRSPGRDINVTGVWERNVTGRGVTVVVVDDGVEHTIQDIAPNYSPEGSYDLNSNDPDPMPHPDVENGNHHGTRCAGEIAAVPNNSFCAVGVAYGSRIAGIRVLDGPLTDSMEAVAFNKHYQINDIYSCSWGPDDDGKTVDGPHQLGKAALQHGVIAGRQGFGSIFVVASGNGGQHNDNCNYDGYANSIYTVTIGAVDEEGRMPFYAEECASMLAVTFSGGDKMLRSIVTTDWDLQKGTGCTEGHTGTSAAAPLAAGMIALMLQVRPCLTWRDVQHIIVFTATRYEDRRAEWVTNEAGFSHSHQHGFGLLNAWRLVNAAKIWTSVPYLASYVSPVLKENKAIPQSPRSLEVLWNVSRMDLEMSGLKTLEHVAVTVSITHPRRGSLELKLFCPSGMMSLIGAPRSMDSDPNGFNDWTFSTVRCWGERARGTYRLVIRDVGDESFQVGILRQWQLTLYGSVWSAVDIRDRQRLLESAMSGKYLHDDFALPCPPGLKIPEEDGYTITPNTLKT
Kind of assay: ELISA, mAb coated.

Assay [8] concerns the target T8, human PCSK1, myc-myc-his tagged (human, UniProt P29120 111-753, limits assumed).
T8 construct: also called hPCSK1-mmh; hPCSK1
T8 sequence: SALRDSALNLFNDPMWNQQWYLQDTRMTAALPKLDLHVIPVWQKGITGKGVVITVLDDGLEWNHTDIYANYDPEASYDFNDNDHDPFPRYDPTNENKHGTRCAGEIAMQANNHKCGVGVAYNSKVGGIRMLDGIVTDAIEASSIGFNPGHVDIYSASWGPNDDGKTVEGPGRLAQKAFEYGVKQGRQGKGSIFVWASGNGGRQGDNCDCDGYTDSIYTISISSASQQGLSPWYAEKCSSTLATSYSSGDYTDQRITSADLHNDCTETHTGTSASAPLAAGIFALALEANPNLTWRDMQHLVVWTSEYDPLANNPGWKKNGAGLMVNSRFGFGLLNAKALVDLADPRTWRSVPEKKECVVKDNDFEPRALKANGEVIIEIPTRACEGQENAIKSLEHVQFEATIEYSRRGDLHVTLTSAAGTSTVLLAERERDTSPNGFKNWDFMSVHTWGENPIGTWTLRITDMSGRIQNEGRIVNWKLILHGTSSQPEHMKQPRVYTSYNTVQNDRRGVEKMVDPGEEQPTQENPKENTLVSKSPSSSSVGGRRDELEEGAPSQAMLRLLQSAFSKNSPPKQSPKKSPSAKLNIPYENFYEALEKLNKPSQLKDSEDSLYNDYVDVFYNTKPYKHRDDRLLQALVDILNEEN
The experiment in a line: ELISA, mAb coated.

Assay [9] deals with T4, Human PCSK9-myc-myc-his. The experiment in a line: SPR, mAb captured, 37C.
Procedure: Each selected antibody was captured at a flowrate of 2 μl/min for 6 min on a goat anti-human IgG polyclonal antibody surface created through direct chemical coupling to a BIACORE™ chip to form a captured antibody surface.
Assay [10] addresses T9, rat (Rattus norvegicus) PCSK9, myc-myc-his tagged (rat (Rattus norvegicus), UniProt P59996 31-691).
T9 construct: also called rPCSK9-mmh; rPCSK9
Kind of assay: SPR, mAb amine-coupled, 37C, pH 5.5.
Source text: as §1

For assay [11], the target named is T6, mouse PCSK9, myc-myc-his tagged. The experiment in a line: SPR, mAb amine-coupled, 37C, pH 5.5.
Source text: as §1

T3 sequence (A8T666 31-692 limits assumed): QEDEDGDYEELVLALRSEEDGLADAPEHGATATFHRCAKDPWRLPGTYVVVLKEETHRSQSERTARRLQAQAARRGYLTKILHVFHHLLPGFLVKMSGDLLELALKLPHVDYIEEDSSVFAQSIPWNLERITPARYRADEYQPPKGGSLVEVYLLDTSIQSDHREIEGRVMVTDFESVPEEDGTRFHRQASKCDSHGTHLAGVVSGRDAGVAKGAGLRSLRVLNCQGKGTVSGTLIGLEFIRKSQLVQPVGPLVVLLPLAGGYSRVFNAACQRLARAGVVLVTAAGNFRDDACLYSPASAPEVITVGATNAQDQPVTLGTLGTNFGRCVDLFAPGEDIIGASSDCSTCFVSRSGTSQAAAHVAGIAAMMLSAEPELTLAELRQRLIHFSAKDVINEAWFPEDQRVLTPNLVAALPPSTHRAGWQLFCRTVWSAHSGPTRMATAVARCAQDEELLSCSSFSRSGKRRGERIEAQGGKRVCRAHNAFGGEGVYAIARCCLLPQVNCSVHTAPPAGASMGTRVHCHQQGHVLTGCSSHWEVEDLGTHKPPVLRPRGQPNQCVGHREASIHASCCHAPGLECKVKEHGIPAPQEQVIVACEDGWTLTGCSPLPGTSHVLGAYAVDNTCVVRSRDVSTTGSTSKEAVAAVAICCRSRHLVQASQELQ
T2 sequence (A8T662 31-692 limits assumed): as the sequence (A8T666 31-692 limits assumed) above, with P607A, K639E counted along it
T9 sequence (P59996 31-691 limits assumed): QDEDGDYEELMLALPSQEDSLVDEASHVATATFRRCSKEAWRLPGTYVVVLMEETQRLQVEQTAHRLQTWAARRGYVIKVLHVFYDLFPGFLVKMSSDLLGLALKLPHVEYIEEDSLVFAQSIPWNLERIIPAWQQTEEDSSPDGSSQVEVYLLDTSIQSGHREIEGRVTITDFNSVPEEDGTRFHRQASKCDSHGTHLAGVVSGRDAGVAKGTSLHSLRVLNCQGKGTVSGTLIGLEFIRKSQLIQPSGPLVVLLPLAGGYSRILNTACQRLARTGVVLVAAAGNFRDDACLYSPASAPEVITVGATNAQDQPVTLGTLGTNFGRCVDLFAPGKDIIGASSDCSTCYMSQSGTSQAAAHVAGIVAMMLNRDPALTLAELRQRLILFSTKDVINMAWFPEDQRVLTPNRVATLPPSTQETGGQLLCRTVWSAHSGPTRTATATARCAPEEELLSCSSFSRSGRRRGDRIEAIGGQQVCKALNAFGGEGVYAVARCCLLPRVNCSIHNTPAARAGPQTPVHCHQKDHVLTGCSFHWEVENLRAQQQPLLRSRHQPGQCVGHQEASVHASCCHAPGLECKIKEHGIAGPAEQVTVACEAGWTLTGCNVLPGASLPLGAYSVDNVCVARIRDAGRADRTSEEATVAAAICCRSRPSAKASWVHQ

B1: H1M300N (antibody, V domains shown)
VH: EMQLVESGGGLVQPGGSLRLSCAASGFTFSSHWMKWVRQAPGKGLEWVANINQDGSEKYYVDSVKGRFTISRDNAKNSLFLQMNSLRAEDTAVYYCARDIVLMVYDMDYYYYGMDVWGQGTTVTVSS
VL: not shown
notes: Fully human version made in CHO cells
Usually Kd stands for the constant that tells how readily two partners part at equilibrium. Turning to B1, the equilibrium dissociation constant (Kd) turned out to be 2.2 nM with hPCSK9(D374Y)-mmh, 3.8 nM in assay [1], 1.6 nM in [2] and 2.4 nM with Human PCSK9-myc-myc-his [3]. The T1/2 in the assay with hPCSK9(D374Y)-mmh was 14 min; in [1], 11 min; in assay [2], 26 min; with Human PCSK9-myc-myc-his [3], 22 min.

B2: H1H316P (antibody, V domains shown)
VH: EVQLVESGGGLVQPGGSLRLSCAASGFTFNNYAMNWVRQAPGKGLDWVSTISGSGGTTNYADSVKGRFIISRDSSKHTLYLQMNSLRAEDTAVYYCAKDSNWGNFDLWGRGTLVTVSS
VL: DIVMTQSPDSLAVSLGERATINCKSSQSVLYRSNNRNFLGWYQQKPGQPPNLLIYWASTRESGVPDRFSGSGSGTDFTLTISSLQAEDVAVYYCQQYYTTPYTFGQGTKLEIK
notes: Fully human mAb made in CHO cells; also called mAb316P
Broadly, the koff is the first-order rate constant of dissociation. As to B2, the T1/2 in assay [4] amounted to 51 min; in assay [6] it was 10 min; with Human PCSK9-myc-myc-his [9], 11 min; in assay [10], 1 min; in [11] it was 3 min. Besides, the koff in [4] was 0.000229 s⁻¹. In addition, the OD in [5] is over 1.5 od. For the same molecule, the Kd was 4.46 nM in assay [6], 1.08 nM in the assay with Human PCSK9-myc-myc-his [9], 0.399 nM in [10] and 13.6 nM in [11]. The binding result in [7] and in assay [8] was “no binding (tested: 1.2 nM)” each time.

For the origin of these results see patent US20130064834A1 (published 2013).
